Legend:
[1] = target: Actin of the thin filament in human ventricular myocytes (human (endogenous in ventricular myocytes)) (UniProt P68032); experiment: autocorrelation function of fluctuations of fluorescence anisotropy (confocal, about 6 molecules); in situ, A-band of isolated EDC-cross-linked myocytes from failing human left ventricles, isometric contraction in contracting solution (5 mM ATP, 0.1 mM CaCl2, pH 7.5); 20 s records, time resolution 10 ms; three-state fit
[2] = target: Actin of the thin filament in human ventricular myocytes (human (endogenous in ventricular myocytes)) (UniProt P68032); experiment: autocorrelation function of fluctuations of fluorescence anisotropy (confocal, about 6 molecules); in situ, A-band of isolated EDC-cross-linked myocytes from failing human right ventricles, isometric contraction in contracting solution (5 mM ATP, 0.1 mM CaCl2, pH 7.5); 20 s records, time resolution 10 ms; three-state fit

What does the source list for “Ventricular myosin cross-bridge carrying the exchanged fluorescent LC (from UniProt P12883 1-1935; P05976 1-194; P10916 1-166) (complex)”?
k (DISS) (rate of dissociation of the cross-bridge from the thin filament during contraction) [1]: 2.24; k (DISS) (rate of dissociation of the cross-bridge from the thin filament during contraction) [2]: 2.36

Source: paper PMC5645524
